# B1: Recombinant His-tagged EPCR (receptor)
# chain: SQDASDGLQRLHMLQISYFRDPYHVWYQGNASLGGHLTHVLEGPDTNTTIIQLQPLQEPESWARTQSGLQSYLLQFHGLVRLVHQERTLAFPLTIRCFLGCELPPEGSRAHVFFEVAVNGSSFVSFRPERALWQADTQVTSGVVTFTLQQLNAYNRTRYELREFLEDTCVQYVQKHISAENTKGSQTSRSYTSLVLGVLVGSFIIAGVAVGIFLCTGGRRC
# modifications: biotin (biotinylated by BirA)
# Biological target: ICAM-1D1D5-Fc::PFD1235w head structure complex (human | Plasmodium falciparum)
# Assay: SPR; Biacore T-200; dual binding: ICAM-1D1D5 Fc immobilized (1,800, 2,100 or 1,500 RU) on Protein A CM5 chip, head structure injected at 250 nM for 240 s, then EPCR injected, two-fold dilutions 250 nM to 16 nM, 30 µL/min, 240 s association, 720 s dissociation; 10 mM HEPES pH 8.0, 300 mM NaCl, 0.05% Tween-20; one-site kinetic model
binder,measurement,value
B1,Kd,0.271 µM
same,koff,0.00103 s⁻¹
same,kon,3600 M⁻¹ s⁻¹
